# ± gives the standard deviation of the averaged measurements.
# Test system: Saccharomyces cerevisiae
# Assay: protein stability index of tFT-peptide fusion (C-terminal peptide) (PSI (0-1 scale)); higher = more stable (slower turnover)
# Settings: genetic background: wild type; temperature: 30 C
# 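Note: PSI is a weighted mean of sequencing reads over stability bins, variants kept only with over 10 reads, mCherry proximal and sfGFP distal, peptide attached via GGGS linker.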
row,Sequence,protein stability index
1,PPPASPSPSMVF,0.693 ± 0.024
2,PPPASRTPSNLP,0.732 ± 0.046
3,PPPDPPLSPPPP,0.676 ± 0.087
4,PPPDYPPTPAPS,0.715 ± 0.054
5,PPPEVDLRPCHC,0.688 ± 0.055
6,PPPFCPCNRLNG,0.702 ± 0.0078
7,PPPFSPPSDLPL,0.601 ± 0.041
8,PPPGPPPPPPYP,0.656 ± 0.12
9,PPPGPPSAPPPH,0.706 ± 0.047
10,PPPGPRPPSRSN,0.581 ± 0.022
11,PPPHAARSLFSL,0.733 ± 0.098
12,PPPHATPAPSPL,0.706 ± 0.045
13,PPPHPGFHLSSP,0.673 ± 0.088
14,PPPHPKPPPAGH,0.62 ± 0.069
15,PPPHPPTPLPPT,0.701 ± 0.018
16,PPPHSPSPTPHW,0.713 ± 0.016
17,PPPHSSPPPSPP,0.693 ± 0.069
18,PPPHTPLPPLAP,0.744 ± 0.05
19,PPPLGPPPPSSL,0.774 ± 0.072
20,PPPLLCPSSAPP,0.783 ± 0.087
21,PPPLPALRPPSH,0.7193 ± 0.0013
22,PPPLPLVPPSPP,0.651 ± 0.033
23,PPPLPPAPPPFP,0.698 ± 0.017

row,Sequence,protein stability index
1,PPPLPPFPPAPP,0.642 ± 0.012
2,PPPLPPPCSAPP,0.736 ± 0.012
3,PPPLPPPSLVSF,0.6741 ± 0.0051
4,PPPLPPSIPLPL,0.743 ± 0.031
5,PPPLSPPPPPRP,0.6643 ± 0.0031
6,PPPLSVPVPPLS,0.68 ± 0.021
7,PPPPAPPAPPLR,0.732 ± 0.056
8,PPPPAQGRRRPV,0.703 ± 0.023
9,PPPPIRRPASHL,0.76 ± 0.058
10,PPPPLAPLPPAS,0.608 ± 0.12
11,PPPPLAVSPTSP,0.716 ± 0.039
12,PPPPLPFSPPDP,0.681 ± 0.044
13,PPPPLPHPPAAS,0.7 ± 0.02
14,PPPPLPPLTPLS,0.6512 ± 0.0037
15,PPPPLPPPTLPT,0.726 ± 0.11
16,PPPPLSPPPPRP,0.693 ± 0.05
17,PPPPLSTVPPPP,0.811 ± 0.019
18,PPPPPAIPRRRT,0.678 ± 0.033
19,PPPPPAPTTSVP,0.6829 ± 0.002
20,PPPPPHAEAVSR,0.59 ± 0.029
21,PPPPPLHPPPPL,0.605 ± 0.056
22,PPPPPLLAPSPL,0.671 ± 0.07
23,PPPPPLLPSPSP,0.696 ± 0.05

row,Sequence,protein stability index
1,PPPPPLPPPPPT,0.696 ± 0.087
2,PPPPPLRPPRSP,0.767 ± 0.013
3,PPPPPPASPPSP,0.71 ± 0.015
4,PPPPPPLPLPLS,0.711 ± 0.084
5,PPPPPPLTPTFP,0.6601 ± 0.0036
6,PPPPPPNAPPSS,0.647 ± 0.03
7,PPPPPPPLTSLP,0.7175 ± 0.0013
8,PPPPPPPPHPPP,0.559 ± 0.0068
9,PPPPPPPPHSPP,0.672 ± 0.035
10,PPPPPPPRPSFP,0.696 ± 0.041
11,PPPPPPSLPLPP,0.6709 ± 0.0044
12,PPPPPRPPYPIP,0.735 ± 0.011
13,PPPPPSAPAPLH,0.6963 ± 0.0021
14,PPPPPSPAPGIP,0.66 ± 0.055
15,PPPPPSSFPFPP,0.656 ± 0.049
16,PPPPPTFPPPRS,0.817 ± 0.025
17,PPPPPTPLPSTL,0.727 ± 0.038
18,PPPPPTPPSSTP,0.713 ± 0.068
19,PPPPPTPTPPYR,0.6952 ± 0.0014
20,PPPPRLPARLAP,0.77 ± 0.16
21,PPPPRPPFPRAF,0.698 ± 0.0051
22,PPPPRPPPLPTR,0.703 ± 0.021
23,PPPPRPPRPPPA,0.671 ± 0.12

row,Sequence,protein stability index
1,PPPPSLPPPPRS,0.693 ± 0.035
2,PPPPSSLPPPPC,0.691 ± 0.012
3,PPPPSSPFPHAS,0.697 ± 0.03
4,PPPPSSPPHLPF,0.651 ± 0.018
5,PPPPVPLPPPRL,0.713 ± 0.021
6,PPPPVPPPPSPL,0.6974 ± 0.0036
7,PPPPYARHTALI,0.691 ± 0.032
8,PPPQSPPLLLVL,0.548 ± 0.021
9,PPPRFRLSSFPT,0.701 ± 0.021
10,PPPRPGFCLFLP,0.674 ± 0.05
11,PPPRPRYLHPPS,0.719 ± 0.035
12,PPPRRPPPRLLS,0.705 ± 0.11
13,PPPSAPLPPLPL,0.714 ± 0.019
14,PPPSHLGSLDPL,0.661 ± 0.02
15,PPPSPPLPPHSP,0.7619 ± 0.0011
16,PPPSPPRPLLPV,0.701 ± 0.023
17,PPPSSELTFLHY,0.797 ± 0.067
18,PPPTPLLLSHLL,0.709 ± 0.068
19,PPPTPPRPPSPP,0.656 ± 0.015
20,PPPTPTPPSQPT,0.681 ± 0.012
21,PPPVPPPPAHTP,0.681 ± 0.091
22,PPPVPPPWPSPF,0.661 ± 0.047
23,PPPYRPPPSSPG,0.661 ± 0.04

row,Sequence,protein stability index
1,PPQLSRHVSTRP,0.754 ± 0.0084
2,PPQPRSHPPHLS,0.594 ± 0.086
3,PPQSPPPGSPPP,0.649 ± 0.013
4,PPRASPFPTPPP,0.579 ± 0.04
5,PPRFCPPLAPSV,0.681 ± 0.0095
6,PPRFLPFPPLPL,0.75493 ± 0.00067
7,PPRLVPPTPPSS,0.65 ± 0.064
8,PPRPPAALPRLL,0.714 ± 0.07
9,PPRPPLSPPRSA,0.718 ± 0.014
10,PPRPRVLPYPPL,0.746 ± 0.028
11,PPRQLPFLAPSP,0.709 ± 0.046
12,PPRRPSPPSPHP,0.67196 ± 0.00055
13,PPRSPPSLPFPP,0.634 ± 0.0066
14,PPRTHRPPTPPQ,0.7212 ± 0.0063
15,PPSLCPPPSLLF,0.733 ± 0.013
16,PPSLLLCPLFTS,0.602 ± 0.075
17,PPSLPLLLPPCT,0.649 ± 0.019
18,PPSLPPLFLRAP,0.667 ± 0.0091
19,PPSLPPLPFSTP,0.7352 ± 0.0065
20,PPSLPPLSPPLA,0.736 ± 0.02
21,PPSNAFEETLRT,0.7 ± 0.015
22,PPSPLPQPRPQT,0.695 ± 0.014
23,PPSPPPPPASPP,0.6805 ± 0.0015

row,Sequence,protein stability index
1,PPSPPPVRPHPP,0.587 ± 0.068
2,PPSPPSPPPSAP,0.704 ± 0.0093
3,PPSPRLFRFLPP,0.631 ± 0.074
4,PPSPSPPSPPPP,0.656 ± 0.007
5,PPSPSPPSPPSP,0.654 ± 0.032
6,PPSQRPPPPPPL,0.704 ± 0.023
7,PPSRPLSVLPPP,0.6863 ± 0.0055
8,PPSSPALPSDTP,0.694 ± 0.013
9,PPSSPCLRPSPP,0.683 ± 0.037
10,PPSSPPPTIPAH,0.642 ± 0.029
11,PPSSRPPVRSPP,0.6903 ± 0.0014
12,PPSSSPPHTPFP,0.6557 ± 0.0011
13,PPSTPPPSPPTP,0.725 ± 0.072
14,PPSTRPYRLFPL,0.682 ± 0.048
15,PPSVPTPCPVPI,0.696 ± 0.067
16,PPSWTPPSPLPL,0.727 ± 0.06
17,PPTFPPHSYLHP,0.652 ± 0.043
18,PPTLPFSARSPP,0.659 ± 0.036
19,PPTLPVPSPSPL,0.822 ± 0.25
20,PPTPHPSTPALP,0.714 ± 0.075
21,PPTPPPPSPLAP,0.73 ± 0.034
22,PPTSPPLAPPPL,0.643 ± 0.062
23,PPTVSRPPHLPT,0.69 ± 0.048

row,Sequence,protein stability index
1,PPVLQPLLALAL,0.535 ± 0.015
2,PPVLVPAHHRPD,0.651 ± 0.014
3,PPVPDSFAAFLR,0.743 ± 0.089
4,PPVPPPHASPAP,0.709 ± 0.05
5,PPVPPPLPSPPP,0.712 ± 0.025
6,PPVRRPAHATTG,0.722 ± 0.038
7,PPVSHPSPFPLP,0.653 ± 0.0095
8,PPWPLVVQPSPP,0.703 ± 0.041
9,PPYAPSPSPPSH,0.6936 ± 0.0029
10,PPYPLHPARPPY,0.702 ± 0.036
11,PPYPPETPPVHP,0.724 ± 0.037
12,PPYPPGLPSLPP,0.689 ± 0.043
13,PQGAYLFTSTCI,0.753 ± 0.054
14,PQGGREYIYSPQ,0.718 ± 0.019
15,PQHFARSITPPP,0.64 ± 0.097
16,PQPPFTHGLIPS,0.706 ± 0.023
17,PQPPLYPPPSLP,0.675 ± 0.036
18,PQPPPRSPPSYL,0.75 ± 0.049
19,PQSKWQWHSGLT,0.692 ± 0.065
20,PQSPVCDLESRL,0.666 ± 0.11
21,PRAHIDWALTVM,0.548 ± 0.065
22,PRALLPPSPPSP,0.635 ± 0.09

# From the supplement of paper PMC10724198
